Test results from US20220204611A1 (Amgen, published 2022).

T1: human TREM2 on cells (human, UniProt Q9NZC2 19-230)
T1 sequence: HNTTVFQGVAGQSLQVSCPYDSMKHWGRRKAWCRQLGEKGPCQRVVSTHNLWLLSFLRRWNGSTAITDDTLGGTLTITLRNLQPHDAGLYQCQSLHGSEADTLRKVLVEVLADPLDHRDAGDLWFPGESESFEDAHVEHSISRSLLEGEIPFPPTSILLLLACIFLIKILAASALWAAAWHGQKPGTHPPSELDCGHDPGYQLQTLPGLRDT

T2: recombinant soluble human TREM2 protein (human TREM2 ECD-FlagHis) (human, UniProt Q9NZC2 19-174)
T2 sequence: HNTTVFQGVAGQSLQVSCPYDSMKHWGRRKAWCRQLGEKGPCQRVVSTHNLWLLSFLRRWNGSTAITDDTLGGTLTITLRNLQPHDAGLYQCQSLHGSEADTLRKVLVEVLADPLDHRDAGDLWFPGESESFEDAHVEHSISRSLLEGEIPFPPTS

T3: soluble human TREM2 protein (TREM2 ECD-huIgG1 Fc fusion protein) (human, UniProt Q9NZC2 19-174, biotinylated)
T3 construct: also called biotinylated soluble human TREM2 protein
T3 sequence: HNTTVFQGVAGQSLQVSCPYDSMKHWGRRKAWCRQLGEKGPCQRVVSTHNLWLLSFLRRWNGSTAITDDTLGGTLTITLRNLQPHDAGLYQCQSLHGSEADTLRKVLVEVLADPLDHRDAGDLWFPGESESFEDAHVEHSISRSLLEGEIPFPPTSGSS


How the values were obtained:
human TREM2 on cells [1] = target: T1, human TREM2 on cells; test: cell-based or functional assay
[2] = target: T2, recombinant soluble human TREM2 protein …; test: Octet BLI binning; competitor: load Ab 33B12
Procedure: (§1) Each of sixteen different anti-TREM2 antibodies produced from hybridomas were quantitated and loaded onto one of the anti-human Fc sensors at 5 μg/mL for 2 minutes (“Load Antibody”). The sensor was then blocked with 100 μg/mL of an irrelevant human IgG2 antibody for 5 minutes. […] Next, each of the sixteen different anti-TREM2 antibodies (“Sandwich Antibody”) was added to the sensor at 5 μg/mL and allowed to bind for 5 minutes. All assay buffers contained 10 mM Tris (pH 7.6), 0.1% Triton X-100, 150 mM NaCl, 1 mM CaCl₂, and 1 mg/mL BSA. The assay was conducted at 25° C. Experimental kinetic results were fit to a 1:1 binding model.
(§2) However, if addition of the sandwich antibody produces a binding event, then the sandwich antibody binds to a different epitope on human TREM2 than the load antibody and the two antibodies are categorized into different epitope bins.

[3] = target: T2, recombinant soluble human TREM2 protein …; test: Octet BLI binning; competitor: load Ab 24A10
Procedure: as §1, §2

[4] = target: T3, soluble human TREM2 protein (TREM2 …); test: ELISA, hybridoma supernatant on captured biotinylated TREM2 ECD-Fc
Procedure: Exhausted hybridoma supernatants were tested for binding to human TREM2 by ELISA. Briefly, neutravidin plates were generated by incubating a 384 well Corning Assay Plate 3702 with neutravidin (Thermo 3100B) at 10 μg/mL (40 μL/well) in 1× PBS at 4° C. overnight. The plates were washed with 1× PBS using a Biotek plate washer and then blocked with 1% milk/1× PBS (90 μL/well) at room temperature (RT) for 30 minutes. The plates were then washed again with 1× PBS using the plate washer. […] The plates were then incubated at RT for 1 hour to immobilize the TREM2 protein to the wells of the plates. Following the incubation, the plates were again washed with 1× PBS using the plate washer. 10 μL of each hybridoma supernatant to be tested and 40 μL of 1% milk/1× PBS (1:5 dilution) were added to each well of the plates and incubated at RT for 1 hour. Again, the plates were washed with 1× PBS using the plate washer. […] After the plates were washed with 1× PBS using the plate washer, 40 μL/well of TMB substrate (Neogen, lot #150114) was added to the plates and the plates were incubated at RT for 30 minutes. The reaction was quenched with 1N hydrochloric acid (40 uL/well) following the incubation period. OD readings at 450 nm were obtained with a plate reader.

[5] = target: T2, recombinant soluble human TREM2 protein …; test: Octet BLI binning; competitor: load Ab 26C10
Procedure: as §1, §2

[6] = target: T2, recombinant soluble human TREM2 protein …; test: Octet BLI binning; competitor: load Ab 26F2
Procedure: as §1, §2

[7] = target: T2, recombinant soluble human TREM2 protein …; test: Octet BLI binning; competitor: load Ab 16B8
Procedure: as §1, §2

[8] = target: T2, recombinant soluble human TREM2 protein …; test: Octet BLI binning; competitor: load Ab 32E3
Procedure: as §1, §2

[9] = target: T2, recombinant soluble human TREM2 protein …; test: Octet BLI binning; competitor: load Ab 26A10
Procedure: as §1, §2

[10] = target: T2, recombinant soluble human TREM2 protein …; test: Octet BLI binning; competitor: load Ab 6E7
Procedure: as §1, §2

[11] = target: T2, recombinant soluble human TREM2 protein …; test: Octet BLI binning; competitor: load Ab 25F12
Procedure: as §1, §2

[12] = target: T2, recombinant soluble human TREM2 protein …; test: Octet BLI binning; competitor: load Ab 24F4
Procedure: as §1, §2

[13] = target: T2, recombinant soluble human TREM2 protein …; test: Octet BLI binning; competitor: load Ab 13E7
Procedure: as §1, §2

[14] = target: T2, recombinant soluble human TREM2 protein …; test: Octet BLI binning; competitor: load Ab 24G6
Procedure: as §1, §2

[15] = target: T2, recombinant soluble human TREM2 protein …; test: Octet BLI binning; competitor: load Ab 10E3
Procedure: as §1, §2

[16] = target: T2, recombinant soluble human TREM2 protein …; test: Octet BLI binning; competitor: load Ab 5E3
Procedure: as §1, §2

human TREM2 on cells [17] = target: T1, human TREM2 on cells; test: cell-based or functional assay; remark: listed apart in the source

Row | Binder | Emax (% maximum activation compared to RnD antibody) (human TREM2 on cells [1]) [%] | pSyk EC50, differentiated THP-1 cells (human TREM2 on cells [1]) [nM] | sandwich binding signal [2] | sandwich binding signal [3] | OD 450 [4] [OD450] | sandwich binding signal [5] | sandwich binding signal [6] | sandwich binding signal [7] | sandwich binding signal [8] | sandwich binding signal [9] | sandwich binding signal [10] | sandwich binding signal [11] | sandwich binding signal [12] | sandwich binding signal [13] | sandwich binding signal [14] | sandwich binding signal [15] | sandwich binding signal [16] | pSyk EC50 (human TREM2 on cells [17]) [nM]
1 | 33B12 (antibody, V domains shown, human IgG2 from hybridoma) VH: EVQLVESGGALVQPGGSLRLSCAASGFTFSSFGMSWVRQAPGKGLEWVSYISKSSFTIYYADSVKGRFTISRDNAKNSFYLQMNSLRDEDTAVYYCAREGGLTMVRGVSSYGLDVWGQGTTVTVSS VL: not shown | 246 | 2.85 |  | 0.47 | 1.34 | -0.009 | 0.002 | -0.017 | 0.384 | 0.023 | 0.52 | 0.345 | 0.454 | 0.287 | 0.388 | 0.271 | -0.015 | 1
2 | 26C10 (antibody, human IgG2, V domains shown, human IgG2 from hybridoma) VH: EVQLVESGGALVQPGGSLRLSCAASGFTFSSFGMSWVRQAPGKGLEWVSYISSSSFTIYYADSVKGRFTISRDNAKNSFYLQMNSLRDEDTAVYFCVREGGITMVRGVSSYGMDVWGQGTTVTVSS VL: SFELTQPPSVSVSPGQTASITCSGDKLGDKYVCWYQQKPGQSPMLVIYQDTKRPSGIPERFSGSNSGNTATLTISGTQAMDEADYYCQAWDSSTVVFGGGTKLTVL |  |  | -0.033 | 0.541 | 1.59 | -0.032 | -0.015 | -0.031 | 0.419 |  | 0.594 | 0.418 | 0.552 | 0.323 | 0.384 | 0.285 | -0.042 | 2.2
3 | 24F4 (antibody, human IgG2, V domains shown, human IgG2 from hybridoma) VH: EVQLVQSGAEVKKPGESLKISCKGSGYTFTSYWIGWVRQMPGKGLEWMGIIYPGDSDTRYSPSFQGQVTISVDKSSSTAYLQWSSLKASDTAIYYCTRQAIAVTGLGGFDPWGQGTLVTVSS VL: EIVLTQSPGTLSLSPGERATLSCRASQSVSSSYLAWYQQKPGQAPRLLIYGASSRATGIPDRFSGSGSGTDFTLTISRLEPEDFALYYCQQYDTSPFTFGPGTKVDIK |  |  | 0.25 | 0.335 |  | 0.346 | 0.282 | 0.27 | -0.001 | 0.319 | -0.039 | 0.244 | 0.038 | -0.015 | 0.251 | -0.032 | 0.311 | 2.4
4 | 24A10 (antibody, human IgG2, V domains shown, human IgG2 from hybridoma) VH: EVQVLESGGGLVQPGGSLRLSCAASGFTFSNYAMSWVRQAPGKGLEWVSAISGSGGSTYYADSVKGRFTISRDNSKNTLYLQMNSLRAEDTAVYYCAKGGWELFYWGQGTLVTVSS VL: not shown |  |  | 0.439 | 0.023 | 2.75 | 0.605 | 0.544 | 0.481 | 0.461 | 0.596 | 0.616 | 0.509 | 0.585 | 0.375 | -0.031 | 0.347 | 0.53 | 32.9

Second part, the binder after the results:

Row | Emax (% maximum activation compared to RnD antibody) (human TREM2 on cells [1]) [%] | pSyk EC50, differentiated THP-1 cells (human TREM2 on cells [1]) [nM] | sandwich binding signal [2] | sandwich binding signal [3] | OD 450 [4] [OD450] | sandwich binding signal [5] | sandwich binding signal [6] | sandwich binding signal [7] | sandwich binding signal [8] | sandwich binding signal [9] | sandwich binding signal [10] | sandwich binding signal [11] | sandwich binding signal [12] | sandwich binding signal [13] | sandwich binding signal [14] | sandwich binding signal [15] | sandwich binding signal [16] | pSyk EC50 (human TREM2 on cells [17]) [nM] | Binder
5 | 140 | 0.418 | 0.007 | 0.423 | 0.59 | 0.006 | 0.031 | -0.009 | 0.4 | 0.028 | 0.504 | 0.399 | 0.454 | 0.312 | 0.369 | 0.28 | -0.004 |  | 16B8 (antibody, human IgG4, V domains shown, human IgG4 (G4) from hybridoma) VH: QVQLVQSGAEVKKPGASVKVSCKASGYTFTNYGISWVRQAPGQGLEWMGWISAYNGNTNYAQKLQGRVTMTTDTSTSTVYMELRSLRSDDTAVYYCARRGYSYGSFDYWGQGTLVTVSS VL: DIQMTQSPSSVSASVGDRVTVTCRASQDINSWLAWYQQKPGKAPKLLIYAASSLQTGVPSRFSGSGSGTDFTLTISSLQPEDFATYSCQQSNSFPITFGQGTRLEIK
6 |  |  | -0.02 | 0.454 | 1.16 | -0.033 | -0.016 | -0.018 | 0.362 | -0.001 | 0.491 | 0.343 | 0.449 | 0.272 | 0.354 | 0.259 | -0.027 | 1.3 | 26A10 (antibody, V domains shown, human IgG2 from hybridoma) VH: EVQLVESGGALVQRGGSLRLSCAASRFTFSSFGMSWVRQAPGKGLEWVSYISSSSFTIYYADSVKGRFTISRDNAKNSFYLQMNSLRDEDTAVYYCAREGGLTMVRGVSSYGLDVWGQGTTVTVSS VL: not shown
